In experiment [1] the target is RFP_PCNA1 (Arabidopsis thaliana) (UniProt Q9M7Q7). Briefly: FRET or BRET; FLIM-FRET in nuclei of transiently transformed N. benthamiana leaf cells; donor GFP fusion, acceptor RFP fusion; E = (1 - tauDA/tauD) x 100%; FRET efficiency of free GFP/RFP (1.19%) used as threshold. (In general: In BRET a luciferase serves as donor, and the signal depends on an acceptor being close.)

The target in experiment [2] is RFP_PCNA2 (Arabidopsis thaliana) (UniProt Q9ZW35). The experiment is described as above.
Sequence of UniProt Q9ZW35 (Q9ZW35 whole entry): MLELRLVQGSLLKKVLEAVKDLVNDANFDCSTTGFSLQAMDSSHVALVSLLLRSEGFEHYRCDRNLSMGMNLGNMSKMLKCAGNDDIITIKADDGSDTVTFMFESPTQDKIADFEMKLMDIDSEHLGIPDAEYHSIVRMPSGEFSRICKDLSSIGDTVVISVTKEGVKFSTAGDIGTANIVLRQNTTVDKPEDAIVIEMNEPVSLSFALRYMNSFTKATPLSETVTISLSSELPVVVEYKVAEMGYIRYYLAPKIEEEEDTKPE

This is an account of results in article PMC4550699.

Sequence of UniProt Q9M7Q7 (Q9M7Q7 whole entry, the tested form may be a part): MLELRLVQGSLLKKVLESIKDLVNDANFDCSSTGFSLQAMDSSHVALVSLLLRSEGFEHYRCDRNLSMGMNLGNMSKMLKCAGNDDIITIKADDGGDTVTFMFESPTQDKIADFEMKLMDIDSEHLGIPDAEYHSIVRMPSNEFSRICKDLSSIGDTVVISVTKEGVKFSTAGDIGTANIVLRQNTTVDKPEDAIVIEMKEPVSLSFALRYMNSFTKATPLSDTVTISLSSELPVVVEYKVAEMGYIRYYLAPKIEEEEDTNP

Turning to “CycD4;1_GFP (from UniProt Q8LGA1 1-308) (natural protein)”, the figures for the FRET efficiency in experiment [1] and in experiment [2] were 3.95% and 1.98%, respectively.
As for “CycD4;2_GFP (from UniProt Q0WQN9 1-298) (natural protein)”, the FRET efficiency in experiment [1] stood at 3.56%; in experiment [2], 5.14%.
Consider “CycD6;1_GFP (from UniProt Q9ZR04 1-302) (natural protein)”, for which the FRET efficiency in experiment [1] was 4.1%; in experiment [2] it was 2.87%.
With “CycD7;1_GFP (from UniProt Q9LZM0 1-341) (natural protein)”, the FRET efficiency in experiment [1] turned out to be 6.25%; in experiment [2], 3.75%.
